Measurements published in patent publication US8541373B2, “BChE albumin fusions for the treatment of cocaine abuse” (priority 2009, dated 2013).
Where “and” joins values, the source holds several entries; their conditions need not be identical. Equal values may be shown once.

System: cocaine
Assay: AlbuBChE PK/PD analysis, sigmoidal inhibitory effect Emax model (cocaine AUC)
Description: AlbuBChE PK/PD relationship was defined using the computer software WinNonlin Professional (Version 4.0.1 Pharsight Corporation, USA). Specifically the direct sigmoidal inhibitory Effect Emax model was use in which maximum effect (Emax) as measured by cocaine AUC was assumed at AlbuBChE concentration of zero. The model equation can be described as follows: Inhibitory Effect Sigmoid Emax, C=0 at Emax, C=infinity at Eo E=Emax−(Emax−E0)*(C**Gamma/(C**Gamma+EC50**Gamma))
The PD parameter used in the analysis was cocaine AUC. PK parameters used in the model were AlbuBChE plasma concentrations at 2, 48, 96, 120, and 240 hr post-AlbuBChE dose. Due to the fact that AlbuBChE concentration was not measured at 2 hr post-AlbuBChE dose, the concentration at 3 hr postdose was used in the analysis with the assumptions that AlbuBChE concentration at 3 hr post AlbuBChE dose may reflect AlbuBChE conc. at 2 hr post AlbuBChE dose.

## AlbuBChE
0.2 mg/kg IM, time 2 hr
  AlbuBChE Conc. used in PK/PD analysis, individual animals: 107 ng/mL and 257 ng/mL and 196 ng/mL
0.2 mg/kg IM, time 48 hr
  AlbuBChE Conc. used in PK/PD analysis, individual animals: 0 ng/mL and 66.4 ng/mL and 80.7 ng/mL
0.2 mg/kg IM, time 96 hr
  AlbuBChE Conc. used in PK/PD analysis, individual animals: 0 ng/mL (2×) and 30 ng/mL
0.2 mg/kg IM, time 120 hr
  AlbuBChE Conc. used in PK/PD analysis, individual animals: 0 ng/mL
0.2 mg/kg IM, time 240 hr
  AlbuBChE Conc. used in PK/PD analysis, individual animals: 0 ng/mL
0.2 mg/kg IM, cocaine 1 mg/kg IV 2 hr post-AlbuBChE
  Cocaine AUC(0-t), individual animals: 13317 ng·min/mL and 10812 ng·min/mL and 11504 ng·min/mL
0.2 mg/kg IM, cocaine 1 mg/kg IV 48 hr post-AlbuBChE
  Cocaine AUC(0-t), individual animals: 8550 ng·min/mL and 7315 ng·min/mL and 7276 ng·min/mL
0.2 mg/kg IM, cocaine 1 mg/kg IV 96 hr post-AlbuBChE
  Cocaine AUC(0-t), individual animals: 13936 ng·min/mL and 8978 ng·min/mL and 10522 ng·min/mL
0.2 mg/kg IM, cocaine 1 mg/kg IV 120 hr post-AlbuBChE
  Cocaine AUC(0-t), individual animals: 11293 ng·min/mL and 11428 ng·min/mL and 12111 ng·min/mL
0.2 mg/kg IM, cocaine 1 mg/kg IV 240 hr post-AlbuBChE
  Cocaine AUC(0-t), individual animals: 13669 ng·min/mL and 12762 ng·min/mL and 14649 ng·min/mL
1 mg/kg IM, time 2 hr
  AlbuBChE Conc. used in PK/PD analysis, individual animals: 1362 ng/mL and 918 ng/mL and 1777 ng/mL
1 mg/kg IM, time 48 hr
  AlbuBChE Conc. used in PK/PD analysis, individual animals: 389 ng/mL and 363 ng/mL and 264 ng/mL
1 mg/kg IM, time 96 hr
  AlbuBChE Conc. used in PK/PD analysis, individual animals: 87 ng/mL and 132 ng/mL and 75 ng/mL
1 mg/kg IM, time 120 hr
  AlbuBChE Conc. used in PK/PD analysis, individual animals: 36 ng/mL and 72 ng/mL and 38 ng/mL
1 mg/kg IM, time 240 hr
  AlbuBChE Conc. used in PK/PD analysis, individual animals: 0 ng/mL
1 mg/kg IM, cocaine 1 mg/kg IV 2 hr post-AlbuBChE
  Cocaine AUC(0-t), individual animals: 6597 ng·min/mL and 9746 ng·min/mL and 7297 ng·min/mL
1 mg/kg IM, cocaine 1 mg/kg IV 48 hr post-AlbuBChE
  Cocaine AUC(0-t), individual animals: 6025 ng·min/mL and 5033 ng·min/mL and 6839 ng·min/mL
1 mg/kg IM, cocaine 1 mg/kg IV 96 hr post-AlbuBChE
  Cocaine AUC(0-t), individual animals: 9166 ng·min/mL and 9925 ng·min/mL and 11042 ng·min/mL
1 mg/kg IM, cocaine 1 mg/kg IV 120 hr post-AlbuBChE
  Cocaine AUC(0-t), individual animals: 10451 ng·min/mL and 11561 ng·min/mL and 12568 ng·min/mL
1 mg/kg IM, cocaine 1 mg/kg IV 240 hr post-AlbuBChE
  Cocaine AUC(0-t), individual animals: 14533 ng·min/mL and 13998 ng·min/mL and 14560 ng·min/mL
5 mg/kg IM, time 2 hr
  AlbuBChE Conc. used in PK/PD analysis, individual animals: 3740 ng/mL and 9627 ng/mL and 4923 ng/mL
5 mg/kg IM, time 48 hr
  AlbuBChE Conc. used in PK/PD analysis, individual animals: 1330 ng/mL and 2644 ng/mL and 1605 ng/mL
5 mg/kg IM, time 96 hr
  AlbuBChE Conc. used in PK/PD analysis, individual animals: 415 ng/mL and 733 ng/mL and 455 ng/mL
5 mg/kg IM, time 120 hr
  AlbuBChE Conc. used in PK/PD analysis, individual animals: 217 ng/mL and 326 ng/mL and 224 ng/mL
5 mg/kg IM, time 240 hr
  AlbuBChE Conc. used in PK/PD analysis, individual animals: 58 ng/mL and 71 ng/mL and 63 ng/mL
5 mg/kg IM, cocaine 1 mg/kg IV 2 hr post-AlbuBChE
  Cocaine AUC(0-t), individual animals: 4594 ng·min/mL and 3039 ng·min/mL and 2234 ng·min/mL
5 mg/kg IM, cocaine 1 mg/kg IV 48 hr post-AlbuBChE
  Cocaine AUC(0-t), individual animals: 3323 ng·min/mL and 2628 ng·min/mL and 3095 ng·min/mL
5 mg/kg IM, cocaine 1 mg/kg IV 96 hr post-AlbuBChE
  Cocaine AUC(0-t), individual animals: 6428 ng·min/mL and 6887 ng·min/mL and 6556 ng·min/mL
5 mg/kg IM, cocaine 1 mg/kg IV 120 hr post-AlbuBChE
  Cocaine AUC(0-t), individual animals: 7954 ng·min/mL and 9620 ng·min/mL and 10560 ng·min/mL
5 mg/kg IM, cocaine 1 mg/kg IV 240 hr post-AlbuBChE
  Cocaine AUC(0-t), individual animals: 11173 ng·min/mL and 13745 ng·min/mL and 13937 ng·min/mL
Cynomolgus monkeys, sigmoidal inhibitory effect Emax model, PD parameter cocaine AUC
  AlbuBChE serum concentration that may result in 50% decrease in cocaine concentration (EC50): ~0.6 µg/mL
